According to the supplement of paper PMC12042874:
± gives the uncertainty stated by the source.

Assay: amyloid nucleation score (Sup35N fusion, yeast selection) (log enrichment); library NNK2; higher = more nucleation; inactive = no reads after selection
Method in brief: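 In psi-negative yeast, Sup35N fusions carrying peptides of 20 random codons were induced with 100 μM copper sulfate for 24 hours. The cells then grew 7 days at 30°C on medium lacking adenine and uracil, and plasmid inserts from input and output were Illumina-sequenced, excluding sequences with under 100 input reads. Nucleation score is the DiMSum log enrichment of output over input reads, centred on the mode score of non-aggregating sequences.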
HCVIQSSYLRD showed an amyloid nucleation score of -0.337 ± 0.54. For TGENI, the amyloid nucleation score was “inactive”. In the case of KTKLIRVFSTCRT, the amyloid nucleation score is reported as “inactive”. Substance VSVGNPFSVNRQVYCPTTEW has an amyloid nucleation score of -1.38 ± 0.62. For KETTGWLRYIP, the amyloid nucleation score was -0.56 ± 0.56. For YAGTH, the amyloid nucleation score was -1.72 ± 0.48. With VFRVCEMDSSLFHYGLALDR the amyloid nucleation score was 0.521 ± 0.3. Work on DFNVSLSCHEKLMMVSFRWR yielded an amyloid nucleation score of -0.373 ± 0.34. With SLSLQGLSFMPFCGRSGSVV the amyloid nucleation score was “inactive”. For NLNFKDGPGDLTCMRDRAFS, the amyloid nucleation score was -0.508 ± 0.63. For ILASCTSRCFESEVRGTSFA, the amyloid nucleation score was 0.568 ± 0.39. With VSHRIFGGNMWPGKSHECMC the amyloid nucleation score was “inactive”. For ASMYLNSSH, the amyloid nucleation score was “inactive”. For HWSYKDSLWVLDAAESVNMS, the amyloid nucleation score was 0.622 ± 0.66. GWGFFIDSYQHGLLM gave an amyloid nucleation score of -1.27 ± 0.54. RIITGPGWTVAGSPVRGVRG showed an amyloid nucleation score of 1.68 ± 0.19. Substance FYVSAFMHIKVLYPVNNRLG has an amyloid nucleation score of 3.62 ± 0.11. In the case of IDLAHGWSSSH, the amyloid nucleation score is reported as 0.66 ± 0.57. With PYIEVY the amyloid nucleation score was 0.926 ± 0.52. Work on YVSHLMFKVSGLPWLGRCNY yielded an amyloid nucleation score of 4.78 ± 0.087. For GAGPEEPDSLDEVIVT, the amyloid nucleation score was 0.202 ± 0.3. In the case of LQAVPIIANCSSTRTANISL, the amyloid nucleation score is reported as “inactive”. Substance TNMIMLFIRMGLRHGDKWAW has an amyloid nucleation score of 2.54 ± 0.19. SWMAQCLPRYTHIADQSDGS gave an amyloid nucleation score of 0.238 ± 0.17. RRLWGIALYRVSLVVFGSLY gave an amyloid nucleation score of -0.354 ± 0.25. With HIHSKQIRVFNFSNFLEQIY the amyloid nucleation score was 6.113 ± 0.033. FMRFARMCS gave an amyloid nucleation score of 0.256 ± 0.16. In the case of LALTWKAWTTHSPRKLAAVF, the amyloid nucleation score is reported as 0.353 ± 0.31. With KALFLYYSSVRITHNKLHAR the amyloid nucleation score was “inactive”. Work on SFVTCCVSCGWRGQIHAEKL yielded an amyloid nucleation score of 6.78 ± 0.073. For YYLNSTSGKDR, the amyloid nucleation score was “inactive”. LRNVRMYDLSLWSRGTRCEG gave an amyloid nucleation score of 0.88 ± 0.28. In the case of VVHDNW, the amyloid nucleation score is reported as 0.29 ± 0.22. FSTQGTPSSSLDWLNRLTVW gave an amyloid nucleation score of 0.102 ± 0.36. For NAVYACLVGEVLWSSISTLS, the amyloid nucleation score was 0.058 ± 0.54. LMQVSA showed an amyloid nucleation score of 0.829 ± 0.41. VSTLRQGWSILQTPNYVRS gave an amyloid nucleation score of -0.219 ± 0.76. Substance NPYINLLRFIDSDSSALV has an amyloid nucleation score of -1.35 ± 1.1. With THFSPMGY the amyloid nucleation score was -0.586 ± 1.1. Substance NQAYR has an amyloid nucleation score of 0.12 ± 0.43. For MLNARELGETNKMLIVWVYL, the amyloid nucleation score was 0.441 ± 0.22. In the case of EGMTMTHGAGQLMLGGTASV, the amyloid nucleation score is reported as 0.904 ± 0.44. VAIGLLVEGGFFIHRNICLW gave an amyloid nucleation score of -1.36 ± 0.62. WYNILLHNSAAEYLTY showed an amyloid nucleation score of -0.296 ± 0.34. WISIRSTNRRKLRHRSYATV showed an amyloid nucleation score of 0.56 ± 0.56. For CKRSTH, the amyloid nucleation score was -0.461 ± 0.49. In the case of STLNSYS, the amyloid nucleation score is reported as -0.42 ± 0.61. For SDGQGHYVIQRTLWVTWSFR, the amyloid nucleation score was -0.707 ± 0.76. For LINLVWTDEITMSDYMKRSG, the amyloid nucleation score was 0.858 ± 0.17. With RPLLKRKESM the amyloid nucleation score was 0.573 ± 0.28. NMRTNLWNIIAFLSSRSIAQ gave an amyloid nucleation score of 0.857 ± 0.35. With RERMRY the amyloid nucleation score was 1.64 ± 0.18. For TFWGTTY, the amyloid nucleation score was “inactive”. For TCLAESGVAMSVS, the amyloid nucleation score was 0.151 ± 0.29. For TMFGPH, the amyloid nucleation score was 0.775 ± 0.74. In the case of ESRIYYVKQYSCLSTLTMVR, the amyloid nucleation score is reported as -0.283 ± 0.35. YSLTYLAFSFQKNNTIFLTY showed an amyloid nucleation score of 0.358 ± 0.65. In the case of ELCGLMAEPYRSHILGCGWT, the amyloid nucleation score is reported as 3.67 ± 0.066. For KYMRLSLEDYNC, the amyloid nucleation score was 0.533 ± 0.39. In the case of YGLWVYMNWLVSLRSLLTRI, the amyloid nucleation score is reported as “inactive”. With NFTYVSIVMLLSRVWVGFNK the amyloid nucleation score was “inactive”. With FQMMCSIDFNKCLPWLFS the amyloid nucleation score was “inactive”. SGVWSSKSLYGKRGNSWIVV gave an amyloid nucleation score of 0.053 ± 0.23. In the case of DGIRVLCLTALPFMWVH, the amyloid nucleation score is reported as “inactive”. Work on LRGYRGFPYCDLYFVCMLRN yielded an amyloid nucleation score of -1.06 ± 1.1. With KMLSMDNYD the amyloid nucleation score was 0.043 ± 1. For VFTVLYALSCLSFIFVTV, the amyloid nucleation score was 4.04 ± 0.047. IYLRESSVYILVFLRTFLVA gave an amyloid nucleation score of -0.542 ± 0.64. Substance MFVFRCVVRTCRSDHENDHS has an amyloid nucleation score of 4.987 ± 0.049. DSWLGRMTRDKGNASFRSAS gave an amyloid nucleation score of 1.16 ± 0.46. In the case of FVVQFMGADHAFKERFGGH, the amyloid nucleation score is reported as 1.87 ± 0.2. GTVLMRFGGCLFFVMSRQNC gave an amyloid nucleation score of 1.89 ± 0.42. LNFIGFK gave an amyloid nucleation score of 0.102 ± 0.74. In the case of QQKPVLGLCFWERAGHLSNR, the amyloid nucleation score is reported as “inactive”. For EGSCYIWGSMAITFNAHHDR, the amyloid nucleation score was 5.68 ± 0.077. In the case of NVHDEWKGFVSGTCGKVEKA, the amyloid nucleation score is reported as 0.355 ± 0.29. For KAMYFYSRTVRPMMGSEEGS, the amyloid nucleation score was -0.072 ± 0.4. With YNVMHRPGGWDFMYGNWMLG the amyloid nucleation score was 4.63 ± 0.063. Work on WASLGYTCFGKVRRWAPGTH yielded an amyloid nucleation score of 0.371 ± 0.28. In the case of NVVKTWPIYIMRPLWTAHSN, the amyloid nucleation score is reported as -0.641 ± 0.31. GNESDVSTIYKGDIPLLGVL showed an amyloid nucleation score of -1.05 ± 0.55. Substance LTSHLYIYGMW has an amyloid nucleation score of -0.766 ± 0.48. FWRLWIVCIPLVYLRR showed an amyloid nucleation score of 0.131 ± 1. Work on KWSIRVGPQWV yielded an amyloid nucleation score of 3.43 ± 0.11. FCVCARWCIVVSGLVCDLRY showed an amyloid nucleation score of -0.323 ± 0.63. Substance SMLLVAFWWKGGWTRISPCQ has an amyloid nucleation score of 0.762 ± 0.23. In the case of ICQCRSLRGRAYQVLGVNKS, the amyloid nucleation score is reported as 0.731 ± 0.57. TLKVCSVLIYLYWN gave an amyloid nucleation score of -1.34 ± 0.75. YNESVHANVYVLLILKGLES showed an amyloid nucleation score of 6.621 ± 0.048. In the case of SVFRND, the amyloid nucleation score is reported as -0.28 ± 0.3. SCNPRKNGSQCCGMNLSLSV gave an amyloid nucleation score of 0.808 ± 0.8. For RVIQLQKVTHWW, the amyloid nucleation score was 2.72 ± 0.078. Substance ISFDLCIKRWQK has an amyloid nucleation score of 5.946 ± 0.054. Substance SQWSCVRTSFGPPMYKWFDL has an amyloid nucleation score of 5.655 ± 0.045. MSLGMCFKWRHRNIVYNLSA gave an amyloid nucleation score of -0.408 ± 0.63. Work on YVPPIGGNRHAHLVASCLGS yielded an amyloid nucleation score of 0.434 ± 0.21. Work on RSQIPNYYWQYMLVYSYLQG yielded an amyloid nucleation score of 0.201 ± 0.74. SVRVVDDGKTGGVGGTSQR showed an amyloid nucleation score of 0.767 ± 0.8. Substance TVNLGSYSEMRFLLLQEQAS has an amyloid nucleation score of -0.747 ± 0.63. With LFWIGWLRRRKKGIGVANKG the amyloid nucleation score was 0.001 ± 0.49. In the case of CIQTSSREVSFRSIATDGST, the amyloid nucleation score is reported as 4.27 ± 0.047. TIARVIFNPVLCWKVSSRV showed an amyloid nucleation score of 5.52 ± 0.063. VRLRTHMFY gave an amyloid nucleation score of -0.831 ± 0.76. Work on FIMYFYKRTNYNFIKYHASA yielded an amyloid nucleation score of 1.52 ± 0.15. With LRSDESRYPAFHRESSVRSR the amyloid nucleation score was 0.377 ± 0.3. Work on LCRVALKEDS yielded an amyloid nucleation score of 0.436 ± 0.8. RLSDLTQVLLDSLTRCGWWG showed an amyloid nucleation score of 0.841 ± 0.43. In the case of YGFLCRL, the amyloid nucleation score is reported as “inactive”. In the case of HRFVFGVYWVVVR, the amyloid nucleation score is reported as “inactive”. Work on GRLGSAPQKR yielded an amyloid nucleation score of 0.686 ± 0.32. For FLPYVIRRGWSCCPSGKWRN, the amyloid nucleation score was 0.03 ± 0.55. For TNMPRWECSHGGRECGKGPA, the amyloid nucleation score was 1.19 ± 0.18. With NGWKYLYIWFPAICSCFMRG the amyloid nucleation score was -0.213 ± 0.24. With FDYLVNIRHGCTWCRTTI the amyloid nucleation score was -0.108 ± 0.4. For WVSGLPHNYNSSFSTAINFS, the amyloid nucleation score was 0.907 ± 0.3. Work on IPYNLIASVMLFKDLNWFAK yielded an amyloid nucleation score of 6.491 ± 0.05. In the case of YSAFHSMENQTRKMFMEPLP, the amyloid nucleation score is reported as -0.311 ± 0.79. RKEVCTVRNLHSRFRGGAIR gave an amyloid nucleation score of -0.119 ± 0.55. With WVNYFEGLMIPVSARN the amyloid nucleation score was -1.16 ± 0.76. EVHGCYRAWDCMMVACVNAL gave an amyloid nucleation score of 0.963 ± 0.53. Work on FIKMSNSWAYDAEFSVPLHM yielded an amyloid nucleation score of 3.84 ± 0.047. With MVSLLNFRECMHY the amyloid nucleation score was “inactive”. Substance TMFTFIAANSRWLNAKIPWY has an amyloid nucleation score of 0.157 ± 0.25. IQDWHVES gave an amyloid nucleation score of -0.075 ± 0.46. For NAIRFLVMLVGTWF, the amyloid nucleation score was 0.25 ± 0.24. For TNGRCVELVMMYKYSLFVGD, the amyloid nucleation score was 1.05 ± 0.61.
